As usually defined, the Kd is the equilibrium constant for the complex coming apart. As a reminder, the koff is the first-order rate constant of dissociation. One may read the kon as a measure of how fast the partners come together.

Where two headings read alike, the source gives them in different places.

The source of these data is paper PMC3444475.

One assay has as its target α5β1 integrin (UniProt P08648). Briefly: optical biosensor (IAsys); α5β1 integrin immobilised; free LG3 at 3.1×10^−8 M to 3.1×10^−7 M, D3904A DV at 8.0×10^−8 M to 4.0×10^−7 M; global fitting; Kd calculated as koff/kon.
The target in assay [1] is integrin α2β1 α2 ligand binding domain (Homo sapiens) (UniProt P17301). The conditions noted are these: cited from earlier work.
Assay [2] has the same target. The following applies: cited from earlier work. This is another data set of the same source.
Assay [3] has as its target integrin α5β1 (Homo sapiens) (UniProt P08648). The conditions noted are these: cited from earlier work.

Sequence of α5β1 integrin (P08648 42-1049, chain 1 of 2): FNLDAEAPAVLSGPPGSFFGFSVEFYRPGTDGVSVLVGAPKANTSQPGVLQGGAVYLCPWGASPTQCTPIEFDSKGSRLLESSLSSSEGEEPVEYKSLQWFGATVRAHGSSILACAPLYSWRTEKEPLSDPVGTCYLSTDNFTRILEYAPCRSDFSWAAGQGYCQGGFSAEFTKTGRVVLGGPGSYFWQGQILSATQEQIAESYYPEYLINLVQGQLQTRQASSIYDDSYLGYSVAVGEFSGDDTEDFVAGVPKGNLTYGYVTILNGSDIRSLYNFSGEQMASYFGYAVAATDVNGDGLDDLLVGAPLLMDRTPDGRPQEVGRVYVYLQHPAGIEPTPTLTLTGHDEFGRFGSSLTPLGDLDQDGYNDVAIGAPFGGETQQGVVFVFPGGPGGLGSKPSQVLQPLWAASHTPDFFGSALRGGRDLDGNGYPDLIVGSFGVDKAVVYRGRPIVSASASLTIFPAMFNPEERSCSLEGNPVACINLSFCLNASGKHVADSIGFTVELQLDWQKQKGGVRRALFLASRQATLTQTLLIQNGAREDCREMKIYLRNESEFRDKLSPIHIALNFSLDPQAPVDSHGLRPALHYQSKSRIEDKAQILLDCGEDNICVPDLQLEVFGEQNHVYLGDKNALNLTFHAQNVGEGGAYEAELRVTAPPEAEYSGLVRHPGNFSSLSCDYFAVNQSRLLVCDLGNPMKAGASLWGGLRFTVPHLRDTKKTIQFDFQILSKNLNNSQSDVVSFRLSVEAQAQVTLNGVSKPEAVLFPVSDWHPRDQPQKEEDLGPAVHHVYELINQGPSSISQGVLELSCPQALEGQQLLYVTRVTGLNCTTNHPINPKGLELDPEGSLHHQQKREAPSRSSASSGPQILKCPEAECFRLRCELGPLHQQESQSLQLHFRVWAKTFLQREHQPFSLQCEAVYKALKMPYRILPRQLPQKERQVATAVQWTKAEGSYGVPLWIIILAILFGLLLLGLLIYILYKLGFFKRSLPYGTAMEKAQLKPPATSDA
Sequence of α5β1 integrin (P05556 21-798, chain 2 of 2, further chain): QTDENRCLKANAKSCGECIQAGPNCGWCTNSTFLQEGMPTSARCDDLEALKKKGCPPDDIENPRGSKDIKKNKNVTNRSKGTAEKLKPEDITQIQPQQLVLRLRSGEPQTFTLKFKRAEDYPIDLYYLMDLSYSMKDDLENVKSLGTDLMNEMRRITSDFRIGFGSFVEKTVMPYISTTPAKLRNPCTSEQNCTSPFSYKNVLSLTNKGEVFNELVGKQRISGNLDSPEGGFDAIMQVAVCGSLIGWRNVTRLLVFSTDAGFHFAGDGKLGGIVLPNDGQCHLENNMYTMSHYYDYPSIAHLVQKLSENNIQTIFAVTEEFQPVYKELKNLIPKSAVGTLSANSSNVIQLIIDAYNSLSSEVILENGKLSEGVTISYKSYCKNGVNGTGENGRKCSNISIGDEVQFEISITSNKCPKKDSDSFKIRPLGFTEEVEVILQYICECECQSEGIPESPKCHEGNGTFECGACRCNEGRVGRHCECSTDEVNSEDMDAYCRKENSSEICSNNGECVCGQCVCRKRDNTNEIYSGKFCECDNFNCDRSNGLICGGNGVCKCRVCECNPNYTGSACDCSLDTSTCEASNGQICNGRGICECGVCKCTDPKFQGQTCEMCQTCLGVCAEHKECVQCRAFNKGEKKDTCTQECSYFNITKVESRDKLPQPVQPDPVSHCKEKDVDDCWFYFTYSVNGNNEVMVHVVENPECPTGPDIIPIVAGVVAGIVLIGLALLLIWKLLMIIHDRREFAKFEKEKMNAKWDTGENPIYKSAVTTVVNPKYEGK
Sequence of Perlecan domain V Domain V (P98160 3687-4391): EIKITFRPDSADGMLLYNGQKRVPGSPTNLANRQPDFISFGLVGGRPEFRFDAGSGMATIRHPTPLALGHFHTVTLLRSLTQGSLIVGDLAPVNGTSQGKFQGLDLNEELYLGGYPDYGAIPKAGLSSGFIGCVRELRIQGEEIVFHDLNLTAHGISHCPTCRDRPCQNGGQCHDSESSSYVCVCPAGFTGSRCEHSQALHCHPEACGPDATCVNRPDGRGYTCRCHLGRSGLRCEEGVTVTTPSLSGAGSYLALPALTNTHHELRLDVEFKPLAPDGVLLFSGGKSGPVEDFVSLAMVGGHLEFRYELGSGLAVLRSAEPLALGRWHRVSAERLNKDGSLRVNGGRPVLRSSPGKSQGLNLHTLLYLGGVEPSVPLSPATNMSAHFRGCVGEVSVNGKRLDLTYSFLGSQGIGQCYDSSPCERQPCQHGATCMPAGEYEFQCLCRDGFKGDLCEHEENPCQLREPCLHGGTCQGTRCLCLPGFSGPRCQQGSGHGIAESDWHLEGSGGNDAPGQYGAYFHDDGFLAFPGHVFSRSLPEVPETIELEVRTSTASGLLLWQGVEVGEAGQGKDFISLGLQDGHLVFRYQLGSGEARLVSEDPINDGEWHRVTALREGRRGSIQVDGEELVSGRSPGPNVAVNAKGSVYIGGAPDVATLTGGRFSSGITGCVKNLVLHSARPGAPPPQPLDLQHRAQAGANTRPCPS
Sequence of integrin α2β1 α2 ligand binding domain (Homo sapiens) (P17301 30-1132, chain 1 of 2): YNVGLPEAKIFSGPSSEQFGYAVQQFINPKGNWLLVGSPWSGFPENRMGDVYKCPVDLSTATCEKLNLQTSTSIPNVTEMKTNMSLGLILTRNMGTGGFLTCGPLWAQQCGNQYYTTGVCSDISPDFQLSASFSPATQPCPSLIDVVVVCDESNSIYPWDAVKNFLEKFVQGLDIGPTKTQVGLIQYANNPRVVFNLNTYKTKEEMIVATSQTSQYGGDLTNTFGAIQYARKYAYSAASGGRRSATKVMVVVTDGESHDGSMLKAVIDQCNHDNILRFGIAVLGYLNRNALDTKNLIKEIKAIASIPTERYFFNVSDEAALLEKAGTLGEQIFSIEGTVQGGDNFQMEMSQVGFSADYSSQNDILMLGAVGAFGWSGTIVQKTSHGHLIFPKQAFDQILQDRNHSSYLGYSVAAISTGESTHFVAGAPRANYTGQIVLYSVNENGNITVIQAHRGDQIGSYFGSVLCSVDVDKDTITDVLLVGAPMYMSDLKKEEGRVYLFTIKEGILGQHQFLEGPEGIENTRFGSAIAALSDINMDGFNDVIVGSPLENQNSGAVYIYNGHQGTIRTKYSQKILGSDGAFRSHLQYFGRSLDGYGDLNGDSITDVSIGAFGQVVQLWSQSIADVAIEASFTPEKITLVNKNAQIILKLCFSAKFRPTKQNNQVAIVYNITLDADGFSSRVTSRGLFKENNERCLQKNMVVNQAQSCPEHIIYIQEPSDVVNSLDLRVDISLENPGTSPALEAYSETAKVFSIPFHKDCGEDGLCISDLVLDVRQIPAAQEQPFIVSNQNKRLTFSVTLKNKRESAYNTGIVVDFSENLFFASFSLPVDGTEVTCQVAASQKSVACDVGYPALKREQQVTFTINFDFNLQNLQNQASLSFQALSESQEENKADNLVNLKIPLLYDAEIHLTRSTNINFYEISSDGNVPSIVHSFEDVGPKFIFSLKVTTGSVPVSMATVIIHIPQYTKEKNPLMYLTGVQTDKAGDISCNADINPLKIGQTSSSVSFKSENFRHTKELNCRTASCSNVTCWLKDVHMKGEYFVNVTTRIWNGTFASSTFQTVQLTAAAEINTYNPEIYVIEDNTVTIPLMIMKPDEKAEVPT
Sequence of integrin α2β1 α2 ligand binding domain (Homo sapiens) (P05556 21-728, chain 2 of 2, further chain): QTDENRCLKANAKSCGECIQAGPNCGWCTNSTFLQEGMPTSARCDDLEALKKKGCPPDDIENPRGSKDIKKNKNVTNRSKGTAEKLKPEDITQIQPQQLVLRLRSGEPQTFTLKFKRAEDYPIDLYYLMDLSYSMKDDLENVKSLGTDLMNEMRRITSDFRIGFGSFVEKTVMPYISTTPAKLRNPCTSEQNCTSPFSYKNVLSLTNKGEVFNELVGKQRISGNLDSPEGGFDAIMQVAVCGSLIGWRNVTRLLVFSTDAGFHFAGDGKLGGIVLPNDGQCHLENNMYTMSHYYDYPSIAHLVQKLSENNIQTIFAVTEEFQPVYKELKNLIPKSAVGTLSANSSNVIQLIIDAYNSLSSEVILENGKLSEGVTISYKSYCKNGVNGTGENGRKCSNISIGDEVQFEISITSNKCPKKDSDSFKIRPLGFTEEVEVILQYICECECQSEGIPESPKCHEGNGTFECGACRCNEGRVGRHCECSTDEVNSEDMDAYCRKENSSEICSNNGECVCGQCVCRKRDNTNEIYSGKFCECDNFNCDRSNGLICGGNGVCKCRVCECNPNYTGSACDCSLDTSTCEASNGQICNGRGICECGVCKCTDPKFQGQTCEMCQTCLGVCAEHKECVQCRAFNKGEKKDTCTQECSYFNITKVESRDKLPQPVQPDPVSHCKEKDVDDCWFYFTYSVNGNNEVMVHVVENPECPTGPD
Sequence of Perlecan LG3 LG3 (P98160 4194-4391): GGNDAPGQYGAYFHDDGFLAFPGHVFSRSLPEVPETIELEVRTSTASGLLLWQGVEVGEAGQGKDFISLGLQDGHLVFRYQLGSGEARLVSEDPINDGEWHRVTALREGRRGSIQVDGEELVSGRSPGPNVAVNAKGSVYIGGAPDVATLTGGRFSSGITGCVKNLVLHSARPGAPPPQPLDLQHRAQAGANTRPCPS

On to “D3904A DV (perlecan Domain V with A in place of the D of its DGR sequence) (domain or fragment; other documents disagree on this pair)”, for which, in the assay with α5β1 integrin, the Kd is 370 nM, the koff is 0.22 s⁻¹ and the association rate constant (kon) is 600000 M⁻¹ s⁻¹.

On to Perlecan LG3 LG3 (from UniProt P98160), for which the dissociation constant Kd in assay [1] was 1000 nM.

For the substance “Perlecan domain V Domain V (from UniProt P98160)”, the Kd in assay [2] was 80 nM; in assay [3], 160 nM.
